The target of assay [1] is T1, CD132 receptor (Sinobiological 10555-H08B) (UniProt P31785).
T1 sequence (looked up): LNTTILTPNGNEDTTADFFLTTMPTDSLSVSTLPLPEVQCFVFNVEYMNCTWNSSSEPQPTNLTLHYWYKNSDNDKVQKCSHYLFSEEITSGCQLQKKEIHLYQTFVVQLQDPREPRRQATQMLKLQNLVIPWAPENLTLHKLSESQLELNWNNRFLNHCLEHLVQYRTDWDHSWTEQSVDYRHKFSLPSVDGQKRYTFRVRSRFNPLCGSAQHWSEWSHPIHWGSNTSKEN
The experiment in a line: Biacore, CD132 injected over the CD127/IL-7 complex on the chip. In general terms: Surface plasmon resonance follows binding to a sensor surface in real time, without labels.

The target in assay [2] is T2, CD127 (Sinobiological, 10975-H03H-50) (UniProt P16871).
T2 sequence (looked up): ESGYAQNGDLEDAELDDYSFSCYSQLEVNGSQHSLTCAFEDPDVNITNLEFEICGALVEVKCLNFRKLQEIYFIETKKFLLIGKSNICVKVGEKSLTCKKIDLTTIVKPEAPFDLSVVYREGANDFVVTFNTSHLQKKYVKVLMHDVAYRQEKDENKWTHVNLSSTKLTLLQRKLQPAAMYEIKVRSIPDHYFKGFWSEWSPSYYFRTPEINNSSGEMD
The experiment in a line: Biacore, CD127 immobilised on CM5 chip; bivalent model.

Assay [3] addresses T1, CD132 receptor (Sinobiological 10555-H08B). The experiment in a line: Biacore, CD132 injected over immobilised CD127 + IgG4 alone; steady-state model; baseline, CD127 dimerizes with CD132 in the absence of IL-7.

As to “IL-7 fused to Fc domain (IL7-Fc, CHI-HF-22007 Adipogen) (Fc fusion)”, the Kd stood at 505 nM in assay [1] and 6.3 nM in assay [2].

As to IgG4 alone (antibody), the Kd in assay [3] amounted to 2500 nM.

The values above are taken from patent US20230071889A1.
